From PMC6297244, “Synthesis and Kinetic evaluation of an azido analogue of methylerythritol phosphate: a Novel Inhibitor of E. coli YgbP/IspD” (Scientific Reports, 2018) come the findings set out here.

Substrate in data set [1]: Nc1ccn([C@@H]2O[C@H](COP(=O)(O)OP(=O)(O)OP(=O)(O)O)[C@@H](O)[C@H]2O)c(=O)n1
The data set can be described thus: Michaelis-Menten and bi-substrate steady-state kinetics (apparent Km), malachite green assay. The format is biochemical, Escherichia coli. The following applies: Mg2+ ([…] MgCl2 in assay); MEP as co-substrate CTP-binding pocket; sequential mechanism.

Substrate in data set [2]: C[C@](O)(CO)[C@H](O)COP(=O)(O)O
Described as above. The format is biochemical, Escherichia coli. The following applies: Mg2+ ([…] MgCl2 in assay); CTP as co-substrate sequential mechanism; ternary complex with CTP.

B1: YgbP/IspD (Escherichia coli K-12) (protein)
chain: ATTHLDVCAVVPAAGFGRRMQTECPKQYLSIGNQTILEHSVHALLAHPRVKRVVIAISPGDSRFAQLPLANHPQITVVDGGDERADSVLAGLKAAGDAQWVLVHDAARPCLHQDDLARLLALSETSRTGGILAAPVRDTMKRAEPGKNAIAHTVDRNGLWHALTPQFFPRELLHDCLTRALNEGATITDEASALEYCGFHPQLVEGRADNIKVTRPEDLALAEFYLTRTIHQENT
A word on the Km: it is the concentration of substrate that gives half-maximal velocity. On to B1, for which the Km in data set [1] is reported as 84 ± 9 µM; in data set [2], 40 ± 7 µM.
